Measurements taken from patent publication US7432419B2 (priority 2004, dated 2008).

B1: Elastase: Human Neutrophil Elastase (Sigma), used as surface recognition domain component (protein, listed as Homo sapiens)
chain: EIVGGRRARPHAWPFMVSLQLRGGHFCGATLIAPNFVMSAAHCVANVNVRAVRVVLGAHNLSRREPTRQVFAVQRIFENGYDPVNLLNDIVILQLNGSATINANVQVAQLPAQGRRLGNGVQCLAMGWGLLGRNRGIASVLQELNVTVVTSLCRRSNVCTLVRGRQAGVCFGDSGSPLVCNGLIHGIASFVRGGCASGLYPDAFAPVAQFVNWIDSIIQ
modifications: truncated neutrophil elastase protein
notes: Human Neutrophil Elastase (Sigma), used as surface recognition domain component

Experiments:
[1] = tested on: E. coli strain HB 101; format: cell-based
[2] = tested on: Xylella fastidiosa (Xf strain "Stags Leap"); format: cell-based
[3] = tested on: Xf outer-membrane protein mopB; format: biochemical, Xylella fastidiosa

Molecule | bacterial growth inhibition (killing) of E. coli [1] | bacterial growth inhibition (killing) of Xf [2] | digestion of purified mopB [3] | effect of elastase on Cecropin B-stimulated lysis of Xf cells [2]
Cecropin B [reference compound] | complete growth inhibition | some growth inhibition |  | 
B1 | insufficient to inhibit bacterial growth | insufficient to inhibit bacterial growth | at least partially digested | greatly enhances
